The values that follow come from publication PMC10097392, “Ligand Installation to Polymeric Micelles for Pediatric Brain Tumor Targeting” (Polymers, 2023).

This assay has as its target T1, CD276/B7-H3 (Homo sapiens (endogenous on DAOY …, UniProt Q5ZPR3)).
T1 construct: CD276/B7-H3, transmembrane protein, endogenous on medulloblastoma patient-derived DAOY cells; source: endogenous, on GFP-expressing DAOY (HTB-186) medulloblastoma cells
As to the kind of experiment: immunostaining of cells or tissue; inhibition assay on live GFP-expressing DAOY cells: CD276Ab at 0, 12.5, 25.0, 50.0 and 100 ug/mL for 1 h at 37 °C, washed, then DBCO-CD276Ab-Cy5 (30.0 ug/mL) for 1 h at 37 °C; Cy5 fluorescence within cells by confocal laser scanning microscopy. As to conditions: one partner purified.

T1 sequence (Q5ZPR3 29-534): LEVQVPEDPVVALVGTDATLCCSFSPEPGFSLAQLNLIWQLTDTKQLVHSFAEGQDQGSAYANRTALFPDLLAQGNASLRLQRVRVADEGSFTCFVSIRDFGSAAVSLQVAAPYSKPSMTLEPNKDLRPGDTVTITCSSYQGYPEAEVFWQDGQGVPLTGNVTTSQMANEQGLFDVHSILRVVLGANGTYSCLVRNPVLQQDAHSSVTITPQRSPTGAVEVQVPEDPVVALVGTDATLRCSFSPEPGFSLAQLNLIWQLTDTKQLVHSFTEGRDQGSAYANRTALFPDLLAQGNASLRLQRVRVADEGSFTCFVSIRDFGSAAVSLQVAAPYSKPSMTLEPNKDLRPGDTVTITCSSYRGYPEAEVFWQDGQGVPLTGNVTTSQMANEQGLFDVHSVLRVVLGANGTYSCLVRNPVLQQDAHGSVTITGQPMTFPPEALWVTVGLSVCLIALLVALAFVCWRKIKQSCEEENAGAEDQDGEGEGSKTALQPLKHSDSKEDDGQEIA

B1: Cy5-labeled DBCO-CD276Ab (DBCO-CD276Ab-Cy5) (antibody, V domains shown)
VH: QVQLQQSGAELVKPGASVKLSCKASGYTFTNYDINWVRQRPEQGLEWIGWIFPGDGSTQYNEKFKGKATLTTDTSSSTAYMQLSRLTSEDSAVYFCARQTTATWFAYWGQGTLVTVSA
VL: DIVMTQSPATLSVTPGDRVSLSCRASQSISDYLHWYQQKSHESPRLLIKYASQSISGIPSRFSGSGSGSDFTLSINSVEPEDVGVYYCQNGHSFPLTFGAGTKLELK
notes: as in m1: constant region of the IgG heavy chain as far as it is not in PDB 5CMA; m1 chemically modified: DBCO-PEG4-NHS fed at 0.25 eq. to primary amines, then Cy5-NHS ester; also called the fabricated antibody; source: CD276Ab from Expi CHO cells, conjugated with DBCO-PEG4-NHS and Cy5-NHS ester, purified (Protein G HP SpinTrap)
Turning to B1, the binding result was “binds”.

B2: anti-CD276 antibody (CD276Ab), 8H9 antibody, IgG (antibody, V domains shown)
VH: QVQLQQSGAELVKPGASVKLSCKASGYTFTNYDINWVRQRPEQGLEWIGWIFPGDGSTQYNEKFKGKATLTTDTSSSTAYMQLSRLTSEDSAVYFCARQTTATWFAYWGQGTLVTVSA
VL: DIVMTQSPATLSVTPGDRVSLSCRASQSISDYLHWYQQKSHESPRLLIKYASQSISGIPSRFSGSGSGSDFTLSINSVEPEDVGVYYCQNGHSFPLTFGAGTKLELK
notes: heavy chain of 8H9; constant region of the IgG heavy chain as far as it is not in PDB 5CMA; light chain of 8H9; IgG; the fabrication scheme is said to be in the Supplementary Materials; also called 'as prepared' CD276Ab; source: Expi CHO cells, co-transfected with heavy and light chain vectors, purified from supernatant (rProtein A Sepharose, SEC)
Consider B2, for which the binding result is reported as “binds”.
